Target: T1, hexa-histidine tagged PsMT2 (Papaver somniferum, UniProt I3PLQ6 1-356)
T1 construct: PsMT2, O-methyltransferase of the noscapine gene cluster of Papaver somniferum; gene codon-optimised for S. cerevisiae, amplified with primers PsMT2-pET-F/R and inserted into pET28a; Printed mass of the His-tagged protein is 40.09 kDa; also called His-tagged PsMT2; source: E. coli BL21(DE3), co-expressed with T7-tagged PsMT3 or Ps6OMT; complex purified (Ni-NTA agarose, then T7 tag antibody …)
T1 sequence (looked up): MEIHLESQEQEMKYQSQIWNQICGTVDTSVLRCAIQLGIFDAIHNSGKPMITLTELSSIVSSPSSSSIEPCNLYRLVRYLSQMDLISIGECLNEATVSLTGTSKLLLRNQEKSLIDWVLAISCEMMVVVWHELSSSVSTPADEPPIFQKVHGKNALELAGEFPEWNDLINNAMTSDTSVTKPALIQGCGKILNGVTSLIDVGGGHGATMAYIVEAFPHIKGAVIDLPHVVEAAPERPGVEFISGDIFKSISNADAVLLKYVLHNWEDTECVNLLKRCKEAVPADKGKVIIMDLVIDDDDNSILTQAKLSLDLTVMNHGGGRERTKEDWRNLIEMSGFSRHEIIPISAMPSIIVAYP
Test: pull-down; tandem affinity co-purification from lysate of E. coli co-expressing both proteins: Ni-NTA agarose (His-tagged PsMT2), eluate then on T7 tag antibody agarose (T7-tagged partner); product analysed by SDS-PAGE and western blot with Anti-6X His tag and Anti-T7 tag antibodies
Conditions: partners not purified

B1: Ps6OMT with T7 tag (enzyme, Papaver somniferum, UniProt Q6WUC1 1-346, looked up)
chain: METVSKIDQQNQAKIWKQIYGFAESLVLKCAVQLEIAETLHNNVKPMSLSELASKLPVAQPVNEDRLFRIMRYLVHMELFKIDATTQKYSLAPPAKYLLRGWEKSMVDSILCINDKDFLAPWHHLGDGLTGNCDAFEKALGKSIWVYMSVNPEKNQLFNAAMACDTRLVTSALANECKSIFSDGISTLVDVGGGTGTAVKAISKAFPDIKCTIYDLPHVIADSPEIPNITKISGDMFKSIPSADAIFMKCILHDWNDDECIQILKRCKEALPKGGKVIIVDVVIDMDSTHPYAKIRLTLDLDMMLNTGGKERTKEEWKTLFDAAGFASHKVTQISAVQSVIEAYPY
notes: norcoclaurine 6-O-methyltransferase from Papaver somniferum (Ps6OMT); also called norcoclaurine 6-O-methyltransferase from P. somniferum; source: E. coli, co-transformed with pCS3306 (His-tagged PsMT2) and pCS3534; complex purified by a similar procedure as PsMT2/PsMT3 (Ni-NTA agarose, then T7 tag antibody agarose); not shown: T7 tag, C-terminal, kept
- binding result: binds
